What was measured:
[1] = biological target: adipokinetic hormone receptor (AKHR) of Monochamus alternatus, overexpressed in Drosophila S2 cells (Monochamus alternatus)
[2] = test system: T1, adipokinetic hormone receptor (AKHR); experiment: Microscale thermophoresis with AKHR-GFP in S2 cell lysate; supported by calcium imaging in AKHR-expressing S2 cells ([…] asc-C9); assay type: binding, Monochamus alternatus
T1 construct: GFP-tagged AKHR in S2 cell lysate (AKHR-GFP fusion protein)

| calcium mobilization (Fluo-4 imaging) in AKHR-expressing S2 cells, dose-response to AKH; no response with an empty vector [1] [nM] | Substance | Kd [2] [µM] |
| --- | --- | --- |
| 30 | M. alternatus AKH peptide (adipokinetic hormone) | – |
| – | asc-C9 | 272 |

Reference: PMC12915204, “A Cold Stress‐Activated Endocrine Sentinel Chemical Hormone Promotes Insect Survival via Mitochondrial Adaptations Through the Adipokinetic Hormone Receptor” (Advanced Science, 2025)
